According to patent publication US20110236390A1 (Janssen / Centocor, published 2011):
Read-outs that look alike come from different tables or passages of the source.

T1: cynomolgus IL-17A (cynomolgus, UniProt Q16552 24-155 (human entry), limits assumed)
T1 construct: also called cyno IL-17A; cynoIL-17A
T1 chain: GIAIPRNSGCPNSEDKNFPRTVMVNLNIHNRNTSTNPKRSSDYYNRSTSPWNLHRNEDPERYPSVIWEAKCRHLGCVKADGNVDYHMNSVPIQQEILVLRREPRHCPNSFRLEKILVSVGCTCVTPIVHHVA


Experiments:
cynomolgus IL-17A [1] = molecular target: T1, cynomolgus IL-17A; experiment: competition ELISA: mAb against biotinylated cyno IL-17A binding to coated IL-17RA-Fc
Experimental: (§1) Clear maxisorp plates were coated with 100 μl/well of 2.5 μg/ml human IL-17RA-Fc (R&D Systems, Minneapolis, Minn.) in 0.1 M sodium carbonate-bicarbonate buffer, pH 9.4 and incubated overnight at 4° C. […] The signal was detected with 100 μl of 1:10,000 dilution of 1 mg/ml SA-HRP (Jackson Immunoresearch, West Grove, Pa.) for 20 minutes at room temperature (RT) followed by 100 μl/well of OPD substrate (Sigma-Aldrich Corp., St. Louis, Mo.).

cynomolgus IL-17A [2] = molecular target: T1, cynomolgus IL-17A; experiment: cell-based or functional assay
cynomolgus IL-17A [3] = molecular target: T1, cynomolgus IL-17A; experiment: competition ELISA: mAb against biotinylated cyno IL-17A binding to coated IL-17RA-Fc
Experimental: as §1

Binder	IC50 (cynomolgus IL-17A [1])	also measured
MORmAb7775 (antibody, V domains shown) VH: QVQLQQSGPGLVKPSQTLSLTCAISGDSVSSSSAAWGWIRQSPGRGLEWLGRISYRSKWYNDYAVSVKSRITINPDTSKNQFSLQLNSVTPEDTAVYYCAREVDSMYYSYFDIWGQGTLVTVSS VL: DIVLTQSPATLSLSPGERATLSCRASQNVWAFYLAWYQQKPGQAPRLLIYGASNRATGVPARFSGSGSGTDFTLTISSLEPEDFATYYCTQYYSSPSLTFGQGTKVEIK	541 pM	–
MORmAb8103 (antibody, V domains shown) VH: QVQLQQSGPGLVKPSQTLSLTCAISGDSVSSSSAAWGWIRQSPGRGLEWLGRISYRSKWYNDYAVSVKSRITINPDTSKNQFSLQLNSVTPEDTAVYYCAREVDSTYYSYFDIWGQGTLVTVSS VL: DIVLTQSPATLSLSPGERATLSCRASQNVWAFYLAWYQQKPGQAPRLLIYGASNRATGVPARFSGSGSGTDFTLTISSLEPEDFATYYCTQYYSSPSLTFGQGTKVEIK	491 pM	–
MORmAb8101 (antibody, V domains shown) VH: QVQLQQSGPGLVKPSQTLSLTCAISGDSVSSSSAAWGWIRQSPGRGLEWLGRISYRSKWYNDYAVSVKSRITINPDTSKNQFSLQLNSVTPEDTAVYYCAREVDSIYYSYFDIWGQGTLVTVSS VL: DIVLTQSPATLSLSPGERATLSCRASQNVWAFYLAWYQQKPGQAPRLLIYGASNRATGVPARFSGSGSGTDFTLTISSLEPEDFATYYCTQYYSSPSLTFGQGTKVEIK	845 pM	–
MORmAb7706 (antibody, V domains shown) VH: QVQLQQSGPGLVKPSQTLSLTCAISGDSVSSSSAAWGWIRQSPGRGLEWLGRISYRSKWYNDYAVSVKSRITINPDTSKNQFSLQLNSVTPEDTAVYYCAREVDSMYYSYFDIWGQGTLVTVSS VL: DIVLTQSPATLSLSPGERATLSCRASQNVWAFYLAWYQQKPGQAPRLLIYGASNRATGVPARFSGSGSGTDFTLTISSLEPEDFATYYCQQYRSTLSLTFGQGTKVEIK	961 pM	–
MORmAb8102 (antibody, V domains shown) VH: QVQLQQSGPGLVKPSQTLSLTCAISGDSVSSSSAAWGWIRQSPGRGLEWLGRISYRSKWYNDYAVSVKSRITINPDTSKNQFSLQLNSVTPEDTAVYYCAREVDSLYYSYFDIWGQGTLVTVSS VL: DIVLTQSPATLSLSPGERATLSCRASQNVWAFYLAWYQQKPGQAPRLLIYGASNRATGVPARFSGSGSGTDFTLTISSLEPEDFATYYCTQYYSSPSLTFGQGTKVEIK	838 pM	–
mAb3077 (antibody, human IgG1, lambda, V domains shown, Framework-engineered mAb; also called engineered form of MOR7785) VH: QVQLVQSGAEVKKPGSSVKVSCKASGGTFSSYAISWVRQAPGQGLEWMGSIIPWFGWTNYAQKFQGRVTITADESTSTAYMELSSLRSEDTAVYYCARDSEYYFDHWGQGTLVTVSS VL: DIQMTQSPSSVSASVGDRVTITCRASQGISNWLNWYQQKPGKAPKLLIYAASSLQSGVPSRFSGSGSGTDFTLTISSLQPEDFATYYCQQYSDDPTFGQGTKVEIKG	–	IL-6 production (NHDF), IC50 (cynomolgus IL-17A [2]): 113 pM; IL-8 production (NHDF), IC50 (cynomolgus IL-17A [2]): 374 pM; IC50 (cynomolgus IL-17A [3]): 54 pM
MORmAb7785 (antibody, V domains shown) VH: QVQLVQSGAEVKKPGSSVKVSCKASGGTFSSYAISWVRQAPGQGLEWMGSIIPWFGWTNYAQKFQGRVTITADESTSTAYMELSSLRSEDTAVYYCARDSEYYFDHWGQGTLVTVSS VL: DIQMTQSPSSLSASVGDRVTITCRASQGISNWLNWYQQKPGKAPKLLIYAASSLQSGVPSRFSGSGSGTDFTLTISSLQPEDFAVYYCQQYSDDPTFGQGTKVEIK	270 pM	–
MORmAb8104 (antibody, V domains shown) VH: QVQLVQSGAEVKKPGSSVKVSCKASGGTFSSYAISWVRQAPGQGLEWMGSIIPWFGTTNYAQKFQGRVTITADESTSTAYMELSSLRSEDTAVYYCARDSEYYFDHWGQGTLVTVSS VL: DIQMTQSPSSLSASVGDRVTITCRASQGISNWLNWYQQKPGKAPKLLIYAASSLQSGVPSRFSGSGSGTDFTLTISSLQPEDFAVYYCQQYSDDPTFGQGTKVEIK	306 pM	–
mAb7024 (antibody, human IgG1, lambda, V domains shown, Framework-engineered mAb; also called engineered form of MOR8104) VH: QVQLVQSGAEVKKPGSSVKVSCKASGGTFSSYAISWVRQAPGQGLEWMGSIIPWFGTTNYAQKFQGRVTITADESTSTAYMELSSLRSEDTAVYYCARDSEYYFDHWGQGTLVTVSS VL: DIQMTQSPSSVSASVGDRVTITCRASQGISNWLNWYQQKPGKAPKLLIYAASSLQSGVPSRFSGSGSGTDFTLTISSLQPEDFATYYCQQYSDDPTFGQGTKVEIKG	–	IL-6 production (NHDF), IC50 (cynomolgus IL-17A [2]): 999 pM; IL-8 production (NHDF), IC50 (cynomolgus IL-17A [2]): 2980 pM; IC50 (cynomolgus IL-17A [3]): 117 pM
MORmAb7708 (antibody, V domains shown) VH: QVQLVQSGAEVKKPGSSVKVSCKASGGTFSSYAISWVRQAPGQGLEWMGRIIPWFGWTSYAQKFQGRVTITADESTSTAYMELSSLRSEDTAVYYCARDSEYYFDHWGQGTLVTVSS VL: DIQMTQSPSSLSASVGDRVTITCRASQGISNWLNWYQQKPGKAPKLLIYAASSLQSGVPSRFSGSGSGTDFTLTISSLQPEDFAVYYCQQYSDDPTFGQGTKVEIK	289 pM	–
MORmAb8105 (antibody, V domains shown) VH: QVQLVQSGAEVKKPGSSVKVSCKASGGTFSSYAISWVRQAPGQGLEWMGSIIPWFGYTNYAQKFQGRVTITADESTSTAYMELSSLRSEDTAVYYCARDSEYYFDHWGQGTLVTVSS VL: DIQMTQSPSSLSASVGDRVTITCRASQGISNWLNWYQQKPGKAPKLLIYAASSLQSGVPSRFSGSGSGTDFTLTISSLQPEDFAVYYCQQYSDDPTFGQGTKVEIK	498 pM	–
mAb624 (antibody, human IgG1, lambda, V domains shown, Framework-engineered mAb; also called engineered form of MOR7708) VH: QVQLVQSGAEVKKPGSSVKVSCKASGGTFSSYAISWVRQAPGQGLEWMGRIIPWFGWTSYAQKFQGRVTITADESTSTAYMELSSLRSEDTAVYYCARDSEYYFDHWGQGTLVTVSS VL: DIQMTQSPSSVSASVGDRVTITCRASQGISNWLNWYQQKPGKAPKLLIYAASSLQSGVPSRFSGSGSGTDFTLTISSLQPEDFATYYCQQYSDDPTFGQGTKVEIKG	–	IL-8 production (NHDF), IC50 (cynomolgus IL-17A [2]): 192 pM; IC50 (cynomolgus IL-17A [3]): 51 pM
MORmAb7700 (antibody, V domains shown) VH: QVQLVESGGGLVQPGGSLRLSCAASGFTFSSYAMSWVRQAPGKGLEWVSTISMTSGFTYYADSVKGRFTISRDNSKNTLYLQMNSLRAEDTAVYYCARQLMLDVWGQGTLVTVSS VL: DIELTQPPSVSVAPGQTARISCSGDNLGDKYANWYQQKPGQAPVLVIYDDIDRPSGIPERFSGSNSGNTATLTISGTQAEDEADYYCGSYDFFLGMIVFGGGTKLTVL	236 pM	–
MORmAb8098 (antibody, V domains shown) VH: QVQLVESGGGLVQPGGSLRLSCAASGFTFSSYAMSWVRQAPGKGLEWVSTISMTSGFTYYADSVKGRFTISRDNSKNTLYLQMNSLRAEDTAVYYCARQLTLDVWGQGTLVTVSS VL: DIELTQPPSVSVAPGQTARISCSGDNLGDKYANWYQQKPGQAPVLVIYDDIDRPSGIPERFSGSNSGNTATLTISGTQAEDEADYYCGSYDFFLGMIVFGGGTKLTVL	289 pM	–
MORmAb8143 (antibody, V domains shown) VH: QVQLVESGGGLVQPGGSLRLSCAASGFTFSSYAMSWVRQAPGKGLEWVSTISMTSGFTYYADSVKGRFTISRDNSKNTLYLQMNSLRAEDTAVYYCARQLMLDVWGQGTLVTVSS VL: DIELTQPPSVSVAPGQTARISCSGDNLGDKYANWYQQKPGQAPVLVIYDDIDRPSGIPERFSGSNSGNTATLTISGTQAEDEADYYCGSYDFFLGYIVFGGGTKLTVL	252 pM	–
MORmAb8142 (antibody, V domains shown) VH: QVQLVESGGGLVQPGGSLRLSCAASGFTFSSYAMSWVRQAPGKGLEWVSTISMTSGFTYYADSVKGRFTISRDNSKNTLYLQMNSLRAEDTAVYYCARQLMLDVWGQGTLVTVSS VL: DIELTQPPSVSVAPGQTARISCSGDNLGDKYANWYQQKPGQAPVLVIYDDIDRPSGIPERFSGSNSGNTATLTISGTQAEDEADYYCGSYDFFLGTIVFGGGTKLTVL	139 pM	–
MORmAb8095 (antibody, V domains shown) VH: QVQLVESGGGLVQPGGSLRLSCAASGFTFSSYAMSWVRQAPGKGLEWVSTISITSGFTYYADSVKGRFTISRDNSKNTLYLQMNSLRAEDTAVYYCARQLMLDVWGQGTLVTVSS VL: DIELTQPPSVSVAPGQTARISCSGDNLGDKYANWYQQKPGQAPVLVIYDDIDRPSGIPERFSGSNSGNTATLTISGTQAEDEADYYCGSYDFFLGMIVFGGGTKLTVL	198 pM	–
MORmAb8097 (antibody, V domains shown) VH: QVQLVESGGGLVQPGGSLRLSCAASGFTFSSYAMSWVRQAPGKGLEWVSTISMTSGFTYYADSVKGRFTISRDNSKNTLYLQMNSLRAEDTAVYYCARQLLLDVWGQGTLVTVSS VL: DIELTQPPSVSVAPGQTARISCSGDNLGDKYANWYQQKPGQAPVLVIYDDIDRPSGIPERFSGSNSGNTATLTISGTQAEDEADYYCGSYDFFLGMIVFGGGTKLTVL	300 pM	–
MORmAb8096 (antibody, V domains shown) VH: QVQLVESGGGLVQPGGSLRLSCAASGFTFSSYAMSWVRQAPGKGLEWVSTISLTSGFTYYADSVKGRFTISRDNSKNTLYLQMNSLRAEDTAVYYCARQLMLDVWGQGTLVTVSS VL: DIELTQPPSVSVAPGQTARISCSGDNLGDKYANWYQQKPGQAPVLVIYDDIDRPSGIPERFSGSNSGNTATLTISGTQAEDEADYYCGSYDFFLGMIVFGGGTKLTVL	58 pM	–
MORmAb8141 (antibody, V domains shown) VH: QVQLVESGGGLVQPGGSLRLSCAASGFTFSSYAMSWVRQAPGKGLEWVSTISMTSGFTYYADSVKGRFTISRDNSKNTLYLQMNSLRAEDTAVYYCARQLMLDVWGQGTLVTVSS VL: DIELTQPPSVSVAPGQTARISCSGDNLGDKYANWYQQKPGQAPVLVIYDDIDRPSGIPERFSGSNSGNTATLTISGTQAEDEADYYCGSYDFFLGLIVFGGGTKLTVL	1440 pM	–
